Laboratory results reported in patent US20150258192A1, “COMPOSITIONS AND METHODS FOR PREVENTING OR TREATING CHRONIC LUNG ALLOGRAFT DYSFUNCTION (CLAD) AND IDIOPATHIC PULMONARY FIBROSIS (IPF)” (priority 2014, published 2015).
No end group written: not given here.

What was measured:
Experiment in all cases: Kinase Profiling Assay
Type in all cases: biochemical
Conditions in all cases: peptide 100 μM
AMPKα2(h) = AMPKα2(h) (Homo sapiens, UniProt P54646)
Procedure, shortened: (§1)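 Scintillation counting quantifies radiolabeled, positively charged substrate retained on a negatively charged filter after kinase reaction with labeled ATP; inhibitor peptide present.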

FGFR2(h) = FGFR2(h) (Homo sapiens, UniProt P21802)
Procedure, shortened: as §1

Flt1(h) = Flt1(h) (Homo sapiens, UniProt P17948)
Flt1(h), sequence (P17948 27-1338): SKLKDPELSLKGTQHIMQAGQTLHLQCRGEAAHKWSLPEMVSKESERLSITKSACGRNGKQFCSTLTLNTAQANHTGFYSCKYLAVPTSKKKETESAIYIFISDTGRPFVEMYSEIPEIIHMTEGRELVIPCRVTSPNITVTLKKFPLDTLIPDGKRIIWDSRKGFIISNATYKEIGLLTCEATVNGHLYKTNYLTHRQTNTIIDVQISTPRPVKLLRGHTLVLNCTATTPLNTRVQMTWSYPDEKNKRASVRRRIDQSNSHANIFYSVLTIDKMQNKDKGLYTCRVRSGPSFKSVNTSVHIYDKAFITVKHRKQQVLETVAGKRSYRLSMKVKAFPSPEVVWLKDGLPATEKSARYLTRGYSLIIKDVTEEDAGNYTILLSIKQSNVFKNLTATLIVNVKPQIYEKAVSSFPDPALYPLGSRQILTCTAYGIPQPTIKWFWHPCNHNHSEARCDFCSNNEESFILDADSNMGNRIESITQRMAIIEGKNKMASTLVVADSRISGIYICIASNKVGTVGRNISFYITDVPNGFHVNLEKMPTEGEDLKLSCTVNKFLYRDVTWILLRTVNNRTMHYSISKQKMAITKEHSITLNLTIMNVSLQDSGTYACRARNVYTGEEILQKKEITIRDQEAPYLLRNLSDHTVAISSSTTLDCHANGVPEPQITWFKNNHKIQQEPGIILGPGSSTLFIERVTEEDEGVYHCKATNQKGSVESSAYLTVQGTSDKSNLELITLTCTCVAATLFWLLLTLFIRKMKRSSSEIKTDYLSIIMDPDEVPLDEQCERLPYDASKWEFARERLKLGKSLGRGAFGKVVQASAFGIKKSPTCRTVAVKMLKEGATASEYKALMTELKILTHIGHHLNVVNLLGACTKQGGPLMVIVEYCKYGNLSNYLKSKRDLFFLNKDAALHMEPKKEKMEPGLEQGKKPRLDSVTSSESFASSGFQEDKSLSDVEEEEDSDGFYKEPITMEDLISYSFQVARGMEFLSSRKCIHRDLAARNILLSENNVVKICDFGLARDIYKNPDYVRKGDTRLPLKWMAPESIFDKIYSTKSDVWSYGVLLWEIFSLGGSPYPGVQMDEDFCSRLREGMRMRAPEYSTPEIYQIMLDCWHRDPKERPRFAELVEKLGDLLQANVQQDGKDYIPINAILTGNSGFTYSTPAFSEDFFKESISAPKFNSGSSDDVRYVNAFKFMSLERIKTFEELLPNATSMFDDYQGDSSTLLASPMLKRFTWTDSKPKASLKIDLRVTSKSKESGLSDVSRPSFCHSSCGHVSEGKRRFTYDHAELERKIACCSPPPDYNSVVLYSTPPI
Procedure, shortened: as §1

IR(h), activated = target: T1, IR(h), activated (Homo sapiens, UniProt P06213)
T1 construct: purchased Millipore
T1 sequence (P06213 1005-1310 limits assumed): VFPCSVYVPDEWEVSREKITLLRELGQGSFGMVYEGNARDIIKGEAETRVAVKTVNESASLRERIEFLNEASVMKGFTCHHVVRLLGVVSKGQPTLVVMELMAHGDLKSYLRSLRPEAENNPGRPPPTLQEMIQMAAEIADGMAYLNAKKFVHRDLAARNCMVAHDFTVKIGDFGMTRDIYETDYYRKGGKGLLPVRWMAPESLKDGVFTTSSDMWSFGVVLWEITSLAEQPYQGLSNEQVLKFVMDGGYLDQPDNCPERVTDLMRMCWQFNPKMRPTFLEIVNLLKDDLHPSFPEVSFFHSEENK
Procedure, shortened: as §1

IRR(h) = target: T2, IRR(h) (Homo sapiens, UniProt P14616)
T2 construct: purchased Millipore
T2 sequence (P14616 27-1297): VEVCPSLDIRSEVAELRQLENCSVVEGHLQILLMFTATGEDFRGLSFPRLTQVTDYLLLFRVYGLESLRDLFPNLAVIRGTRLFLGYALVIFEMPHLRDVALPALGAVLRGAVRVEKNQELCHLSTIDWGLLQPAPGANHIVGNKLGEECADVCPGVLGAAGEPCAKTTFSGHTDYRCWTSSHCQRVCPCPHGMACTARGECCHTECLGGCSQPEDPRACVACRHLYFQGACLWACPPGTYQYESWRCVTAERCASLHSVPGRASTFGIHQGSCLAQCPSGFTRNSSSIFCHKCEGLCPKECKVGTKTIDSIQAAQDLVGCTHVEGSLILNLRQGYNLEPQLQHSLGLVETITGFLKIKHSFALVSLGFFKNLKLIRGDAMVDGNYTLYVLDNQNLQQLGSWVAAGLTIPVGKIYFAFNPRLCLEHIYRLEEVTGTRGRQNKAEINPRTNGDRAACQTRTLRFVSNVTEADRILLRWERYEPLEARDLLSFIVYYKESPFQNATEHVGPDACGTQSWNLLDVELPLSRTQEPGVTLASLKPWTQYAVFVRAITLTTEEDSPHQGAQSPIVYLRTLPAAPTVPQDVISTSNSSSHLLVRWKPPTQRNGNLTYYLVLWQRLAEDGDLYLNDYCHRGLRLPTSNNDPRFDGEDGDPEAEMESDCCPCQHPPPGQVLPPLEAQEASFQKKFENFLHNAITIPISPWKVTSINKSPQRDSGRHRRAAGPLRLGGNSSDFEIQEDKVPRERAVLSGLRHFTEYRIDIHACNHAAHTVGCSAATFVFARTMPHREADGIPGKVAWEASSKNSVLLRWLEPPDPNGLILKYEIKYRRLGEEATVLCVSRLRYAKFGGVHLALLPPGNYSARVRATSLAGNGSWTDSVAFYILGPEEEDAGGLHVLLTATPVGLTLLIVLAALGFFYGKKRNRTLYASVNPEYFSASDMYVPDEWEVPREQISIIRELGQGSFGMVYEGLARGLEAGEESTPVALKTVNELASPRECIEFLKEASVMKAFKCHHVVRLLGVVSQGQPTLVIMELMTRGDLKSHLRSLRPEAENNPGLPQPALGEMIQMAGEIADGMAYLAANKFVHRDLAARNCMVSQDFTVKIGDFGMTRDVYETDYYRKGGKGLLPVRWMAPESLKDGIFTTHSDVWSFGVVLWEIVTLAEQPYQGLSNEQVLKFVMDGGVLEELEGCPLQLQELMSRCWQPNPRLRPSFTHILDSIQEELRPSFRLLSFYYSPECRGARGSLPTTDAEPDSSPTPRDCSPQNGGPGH
Procedure, shortened: as §1

LIMK1(h) = target: T3, LIMK1(h) (Homo sapiens, UniProt P53667)
T3 construct: purchased Millipore
Procedure, shortened: as §1

PKCε(h) = target: T4, PKCε(h) (Homo sapiens, UniProt Q02156)
T4 sequence (Q02156 1-737): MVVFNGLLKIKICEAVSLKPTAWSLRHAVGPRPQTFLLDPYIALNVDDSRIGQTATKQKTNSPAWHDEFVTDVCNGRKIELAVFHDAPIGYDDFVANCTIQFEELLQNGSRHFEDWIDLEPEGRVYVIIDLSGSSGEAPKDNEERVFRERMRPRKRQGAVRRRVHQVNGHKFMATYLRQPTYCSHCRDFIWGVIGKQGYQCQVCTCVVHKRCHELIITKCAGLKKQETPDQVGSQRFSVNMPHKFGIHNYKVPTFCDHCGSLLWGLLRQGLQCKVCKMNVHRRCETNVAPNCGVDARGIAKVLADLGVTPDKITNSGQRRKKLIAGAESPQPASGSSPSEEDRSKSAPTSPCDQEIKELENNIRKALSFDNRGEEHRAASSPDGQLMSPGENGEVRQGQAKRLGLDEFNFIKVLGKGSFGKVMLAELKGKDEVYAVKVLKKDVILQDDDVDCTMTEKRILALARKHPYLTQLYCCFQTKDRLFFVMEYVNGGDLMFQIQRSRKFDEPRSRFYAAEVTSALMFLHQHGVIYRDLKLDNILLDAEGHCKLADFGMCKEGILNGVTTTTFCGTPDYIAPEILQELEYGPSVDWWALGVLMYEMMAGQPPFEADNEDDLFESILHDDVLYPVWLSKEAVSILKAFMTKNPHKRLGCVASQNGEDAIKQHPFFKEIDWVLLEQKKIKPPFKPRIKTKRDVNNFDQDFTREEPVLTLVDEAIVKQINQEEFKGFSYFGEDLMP
Procedure, shortened: as §1

PKG1β(h) = target: T5, PKG1β(h) (Homo sapiens, UniProt Q13976)
T5 sequence (Q13976 1-686 isoform Q13976-2): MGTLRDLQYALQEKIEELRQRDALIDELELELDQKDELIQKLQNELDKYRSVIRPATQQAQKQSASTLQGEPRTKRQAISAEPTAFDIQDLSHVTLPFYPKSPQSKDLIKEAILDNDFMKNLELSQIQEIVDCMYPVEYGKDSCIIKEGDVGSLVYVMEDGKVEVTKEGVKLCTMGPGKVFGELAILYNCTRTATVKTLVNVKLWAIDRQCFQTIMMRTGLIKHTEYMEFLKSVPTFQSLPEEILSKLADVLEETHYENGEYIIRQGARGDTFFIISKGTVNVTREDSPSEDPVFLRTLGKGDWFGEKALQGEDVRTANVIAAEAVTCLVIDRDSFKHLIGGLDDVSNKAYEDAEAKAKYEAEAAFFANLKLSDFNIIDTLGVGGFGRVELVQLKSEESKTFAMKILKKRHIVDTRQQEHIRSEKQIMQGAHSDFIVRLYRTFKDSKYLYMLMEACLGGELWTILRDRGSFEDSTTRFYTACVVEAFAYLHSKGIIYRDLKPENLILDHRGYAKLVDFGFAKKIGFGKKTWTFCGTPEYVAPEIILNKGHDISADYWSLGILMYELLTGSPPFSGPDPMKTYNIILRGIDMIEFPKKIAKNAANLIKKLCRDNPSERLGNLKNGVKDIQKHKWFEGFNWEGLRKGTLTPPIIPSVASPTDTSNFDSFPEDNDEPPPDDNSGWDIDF
Procedure, shortened: as §1

WNK2(h) = WNK2(h) (Homo sapiens, UniProt Q9Y3S1)
Procedure, shortened: as §1

BTK(h) = BTK(h) (Homo sapiens, UniProt Q06187)
Procedure, shortened: as §1

Bmx(h) = target: T6, Bmx(h) (Homo sapiens, UniProt P51813)
T6 sequence (P51813 1-675): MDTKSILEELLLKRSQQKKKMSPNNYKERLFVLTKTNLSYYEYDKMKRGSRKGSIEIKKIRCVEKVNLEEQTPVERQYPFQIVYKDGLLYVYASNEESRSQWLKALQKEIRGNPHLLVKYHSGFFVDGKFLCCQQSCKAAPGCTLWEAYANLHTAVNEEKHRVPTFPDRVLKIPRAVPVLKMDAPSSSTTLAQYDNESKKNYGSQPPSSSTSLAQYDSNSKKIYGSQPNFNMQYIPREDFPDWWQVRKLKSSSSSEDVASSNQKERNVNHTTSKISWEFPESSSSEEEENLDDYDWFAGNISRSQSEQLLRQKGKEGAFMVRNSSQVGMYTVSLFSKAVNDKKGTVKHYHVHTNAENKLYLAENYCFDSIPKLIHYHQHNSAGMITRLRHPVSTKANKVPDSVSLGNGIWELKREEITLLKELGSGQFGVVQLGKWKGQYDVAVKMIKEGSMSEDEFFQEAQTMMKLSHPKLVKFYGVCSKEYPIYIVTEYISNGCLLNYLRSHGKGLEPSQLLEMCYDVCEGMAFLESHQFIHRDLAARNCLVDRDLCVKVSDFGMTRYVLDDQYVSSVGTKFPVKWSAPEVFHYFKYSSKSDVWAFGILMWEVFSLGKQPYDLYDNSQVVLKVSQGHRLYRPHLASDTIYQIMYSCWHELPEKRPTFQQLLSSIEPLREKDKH
Procedure, shortened: as §1

TLK2(h) = TLK2(h) (Homo sapiens, UniProt Q86UE8)
TLK2(h), sequence (Q86UE8 whole entry): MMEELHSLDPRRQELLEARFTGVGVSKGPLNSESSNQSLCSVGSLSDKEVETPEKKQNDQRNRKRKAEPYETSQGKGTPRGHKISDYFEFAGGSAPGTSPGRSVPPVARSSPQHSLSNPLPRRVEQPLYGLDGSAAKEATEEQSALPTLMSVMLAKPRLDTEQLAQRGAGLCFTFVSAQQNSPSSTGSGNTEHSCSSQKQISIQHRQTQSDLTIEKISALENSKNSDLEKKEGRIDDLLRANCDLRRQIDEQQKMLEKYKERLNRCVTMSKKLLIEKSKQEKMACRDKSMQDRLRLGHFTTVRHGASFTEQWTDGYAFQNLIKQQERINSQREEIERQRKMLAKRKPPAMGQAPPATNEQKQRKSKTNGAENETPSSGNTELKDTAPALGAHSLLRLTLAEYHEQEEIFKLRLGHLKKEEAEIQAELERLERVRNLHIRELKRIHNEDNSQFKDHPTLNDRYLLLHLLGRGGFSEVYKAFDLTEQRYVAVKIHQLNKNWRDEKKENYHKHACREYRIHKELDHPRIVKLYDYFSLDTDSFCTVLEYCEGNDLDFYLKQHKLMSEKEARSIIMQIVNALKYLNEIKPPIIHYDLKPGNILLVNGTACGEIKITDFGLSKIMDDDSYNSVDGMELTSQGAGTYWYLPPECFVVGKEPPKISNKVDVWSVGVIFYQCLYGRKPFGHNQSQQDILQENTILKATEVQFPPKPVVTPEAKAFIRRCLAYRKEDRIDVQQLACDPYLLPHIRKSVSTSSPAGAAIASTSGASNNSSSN
Procedure, shortened: as §1

AMPKα2(h), sequence (P54646 whole entry): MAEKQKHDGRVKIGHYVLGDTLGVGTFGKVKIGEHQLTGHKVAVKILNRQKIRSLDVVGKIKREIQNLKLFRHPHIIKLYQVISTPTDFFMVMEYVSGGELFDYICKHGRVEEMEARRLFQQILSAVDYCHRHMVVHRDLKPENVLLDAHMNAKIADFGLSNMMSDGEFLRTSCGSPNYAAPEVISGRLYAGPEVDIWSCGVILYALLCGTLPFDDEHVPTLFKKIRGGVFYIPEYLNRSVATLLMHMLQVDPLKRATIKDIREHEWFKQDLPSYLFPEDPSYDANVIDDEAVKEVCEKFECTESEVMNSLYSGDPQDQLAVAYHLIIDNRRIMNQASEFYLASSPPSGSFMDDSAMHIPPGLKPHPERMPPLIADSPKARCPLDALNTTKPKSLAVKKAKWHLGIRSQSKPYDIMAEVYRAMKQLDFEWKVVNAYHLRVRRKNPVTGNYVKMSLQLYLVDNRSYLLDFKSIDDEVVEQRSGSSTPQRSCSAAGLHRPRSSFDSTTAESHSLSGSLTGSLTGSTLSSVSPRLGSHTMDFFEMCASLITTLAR
AMPKα2(h), sequence (Q9Y478 whole entry partner): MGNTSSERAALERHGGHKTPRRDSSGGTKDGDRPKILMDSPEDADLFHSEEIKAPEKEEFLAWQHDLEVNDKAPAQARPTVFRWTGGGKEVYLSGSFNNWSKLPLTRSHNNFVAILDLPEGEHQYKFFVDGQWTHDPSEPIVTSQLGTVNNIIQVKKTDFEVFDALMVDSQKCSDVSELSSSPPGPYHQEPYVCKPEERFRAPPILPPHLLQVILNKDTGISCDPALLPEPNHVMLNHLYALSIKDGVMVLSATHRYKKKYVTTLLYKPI
AMPKα2(h), sequence (P54619 whole entry partner): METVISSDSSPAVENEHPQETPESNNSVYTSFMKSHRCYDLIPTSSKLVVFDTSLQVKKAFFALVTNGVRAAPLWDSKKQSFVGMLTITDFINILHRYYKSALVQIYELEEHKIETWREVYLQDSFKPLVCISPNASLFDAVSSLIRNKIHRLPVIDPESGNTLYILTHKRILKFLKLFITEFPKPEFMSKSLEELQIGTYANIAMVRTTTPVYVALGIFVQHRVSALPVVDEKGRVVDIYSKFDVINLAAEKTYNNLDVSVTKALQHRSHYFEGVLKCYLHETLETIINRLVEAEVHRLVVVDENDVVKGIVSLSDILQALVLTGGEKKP

Row | Sequence | % activity (AMPKα2(h)) | % activity (FGFR2(h)) | % activity (Flt1(h)) | % activity (IR(h), activated) | % activity (IRR(h)) | % activity (LIMK1(h)) | % activity (PKCε(h)) | % activity (PKG1β(h)) | % activity (WNK2(h)) | % activity (BTK(h)) | % activity (Bmx(h)) | % activity (TLK2(h))
1 | FAKLAARLYRKALARQLGVAA [MMI-0300] | 54% | 14% | 69% | 79% | 8% | 88% | 79% | 50% | 64% |  |  | 
2 | HRRIKAWLKKIKALARQLGVAA (Mammal) [MMI-0500] | 9% | 12% | 27% | 90% | 10% | 87% | 23% | 24% | 8% | 18% | 45% | 133%
3 | KAFAKLAARLYRKALARQLGVAA [MMI-0400] | 58% | 18% | 48% | 59% | 8% | 92% | 59% | 53% | 54% | 94% | 26% | 151%
4 | YARAAARQARAKALARQLGVAA [MMI-0100] |  |  |  | 127% | 85% |  |  | 71% | 95% |  | 62% | 
5 | YARAAARQARAKALNRQLGVA (Mammal) [MMI-0200] | 88% | 73% | 96% |  | 69% |  | 98% | 57% | 94% | 100% | 76% | 129%
